From IntAct's records for PubMed 31515488

B1: Zinc finger CCHC domain-containing protein 10 (Homo sapiens), Q8TBK6 (parent)
chain: MATPMHRLIARRQAFDTELQPVKTFWILIQPSIVISEANKQHVRCQKCLEFGHWTYECTGKRKYLHRPSRTAELKKALKEKENRLLLQQSIGETNVERKAKKKRSKSVTSSSSSSSDSSASDSSSESEETSTSSSSEDSDTDESSSSSSSSASSTTSSSSSDSDSDSSSSSSSSTSTDSSSDDEPPKKKKKK
B2: Serine/threonine-protein kinase PAK 5 (Homo sapiens), Q9P286 (parent)
chain: MFGKKKKKIEISGPSNFEHRVHTGFDPQEQKFTGLPQQWHSLLADTANRPKPMVDPSCITPIQLAPMKTIVRGNKPCKETSINGLLEDFDNISVTRSNSLRKESPPTPDQGASSHGPGHAEENGFITFSQYSSESDTTADYTTEKYREKSLYGDDLDPYYRGSHAAKQNGHVMKMKHGEAYYSEVKPLKSDFARFSADYHSHLDSLSKPSEYSDLKWEYQRASSSSPLDYSFQFTPSRTAGTSGCSKESLAYSESEWGPSLDDYDRRPKSSYLNQTSPQPTMRQRSRSGSGLQEPMMPFGASAFKTHPQGHSYNSYTYPRLSEPTMCIPKVDYDRAQMVLSPPLSGSDTYPRGPAKLPQSQSKSGYSSSSHQYPSGYHKATLYHHPSLQSSSQYISTASYLSSLSLSSSTYPPPSWGSSSDQQPSRVSHEQFRAALQLVVSPGDPREYLANFIKIGEGSTGIVCIATEKHTGKQVAVKKMDLRKQQRRELLFNEVVIMRDYHHDNVVDMYSSYLVGDELWVVMEFLEGGALTDIVTHTRMNEEQIATVCLSVLRALSYLHNQGVIHRDIKSDSILLTSDGRIKLSDFGFCAQVSKEVPKRKSLVGTPYWMAPEVISRLPYGTEVDIWSLGIMVIEMIDGEPPYFNEPPLQAMRRIRDSLPPRVKDLHKVSSVLRGFLDLMLVREPSQRATAQELLGHPFLKLAGPPSCIVPLMRQYRHH
partner: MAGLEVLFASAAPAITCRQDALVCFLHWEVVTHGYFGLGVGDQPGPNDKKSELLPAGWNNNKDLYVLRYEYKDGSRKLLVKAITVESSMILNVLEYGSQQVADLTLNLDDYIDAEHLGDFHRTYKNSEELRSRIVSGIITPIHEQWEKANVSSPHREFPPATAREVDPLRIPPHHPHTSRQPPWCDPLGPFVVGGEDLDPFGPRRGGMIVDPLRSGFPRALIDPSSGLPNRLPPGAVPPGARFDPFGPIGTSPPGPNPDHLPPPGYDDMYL
B3: Notch homolog 2 N-terminal-like protein A (Homo sapiens), Q7Z3S9 (parent)
chain: MCVTYHNGTGYCKCPEGFLGEYCQHRDPCEKNRCQNGGTCVAQAMLGKATCRCASGFTGEDCQYSTSHPCFVSRPCLNGGTCHMLSRDTYECTCQVGFTGKECQWTDACLSHPCANGSTCTTVANQFSCKCLTGFTGQKCETDVNECDIPGHCQHGGTCLNLPGSYQCQCLQGFTGQYCDSLYVPCAPSPCVNGGTCRQTGDFTFECNCLPETVRRGTELWERDREVWNGKEHDEN
partner: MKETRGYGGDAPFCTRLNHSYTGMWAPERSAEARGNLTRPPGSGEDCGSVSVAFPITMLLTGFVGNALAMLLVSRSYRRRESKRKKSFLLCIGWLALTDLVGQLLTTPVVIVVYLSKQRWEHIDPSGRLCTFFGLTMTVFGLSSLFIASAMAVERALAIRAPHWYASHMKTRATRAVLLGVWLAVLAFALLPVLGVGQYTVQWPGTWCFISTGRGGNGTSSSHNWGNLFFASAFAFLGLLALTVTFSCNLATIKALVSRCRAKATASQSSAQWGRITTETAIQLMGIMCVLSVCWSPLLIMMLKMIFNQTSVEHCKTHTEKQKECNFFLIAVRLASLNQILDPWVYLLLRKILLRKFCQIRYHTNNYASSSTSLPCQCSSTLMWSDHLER
B4: Syntaxin-binding protein 4 (Homo sapiens), Q6ZWJ1 (parent)
chain: MNKNTSTVVSPSLLEKDPAFQMITIAKETGLGLKVLGGINRNEGPLVYIQEIIPGGDCYKDGRLKPGDQLVSVNKESMIGVSFEEAKSIITGAKLRLESAWEIAFIRQKSDNIQPENLSCTSLIEASGEYGPQASTLSLFSSPPEILIPKTSSTPKTNNDILSSCEIKTGYNKTVQIPITSENSTVGLSNTDVASAWTENYGLQEKISLNPSVRFKAEKLEMALNYLGIQPTKEQHQALRQQVQADSKGTVSFGDFVQVARNLFCLQLDEVNVGAHEISNILDSQLLPCDSSEADEMERLKCERDDALKEVNTLKEKLLESDKQRKQLTEELQNVKQEAKAVVEETRALRSRIHLAEAAQRQAHGMEMDYEEVIRLLEAKITELKAQLADYSDQNKESVQDLKKRIMVLDCQLRKSEMARKTFEASTEKLLHFVEAIQEVFSDNSTPLSNLSERRAVLASQTSLTPLGRNGRSIPATLALESKELVKSVRALLDMDCLPYGWEEAYTADGIKYFINHVTQTTSWIHPVMSVLNLSRSEENEEDCSRELPNQKS
partner: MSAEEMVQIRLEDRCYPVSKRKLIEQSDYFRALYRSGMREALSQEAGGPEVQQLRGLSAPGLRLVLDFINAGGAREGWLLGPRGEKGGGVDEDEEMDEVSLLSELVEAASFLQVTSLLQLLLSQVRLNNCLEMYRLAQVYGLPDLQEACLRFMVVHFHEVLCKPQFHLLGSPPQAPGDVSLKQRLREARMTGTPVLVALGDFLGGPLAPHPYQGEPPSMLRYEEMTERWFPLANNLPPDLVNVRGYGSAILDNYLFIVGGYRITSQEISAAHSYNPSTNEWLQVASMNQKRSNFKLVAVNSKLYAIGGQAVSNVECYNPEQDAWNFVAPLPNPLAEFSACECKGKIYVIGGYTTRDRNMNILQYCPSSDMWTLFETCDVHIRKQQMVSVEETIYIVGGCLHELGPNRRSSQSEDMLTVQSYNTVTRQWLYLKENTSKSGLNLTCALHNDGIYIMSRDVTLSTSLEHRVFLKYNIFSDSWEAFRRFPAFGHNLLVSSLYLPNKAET

Variants of: B1
Details: with cep70_human CEP70, Q8NHQ1
Sequence of cep70_human CEP70, Q8NHQ1 (Q8NHQ1 whole entry): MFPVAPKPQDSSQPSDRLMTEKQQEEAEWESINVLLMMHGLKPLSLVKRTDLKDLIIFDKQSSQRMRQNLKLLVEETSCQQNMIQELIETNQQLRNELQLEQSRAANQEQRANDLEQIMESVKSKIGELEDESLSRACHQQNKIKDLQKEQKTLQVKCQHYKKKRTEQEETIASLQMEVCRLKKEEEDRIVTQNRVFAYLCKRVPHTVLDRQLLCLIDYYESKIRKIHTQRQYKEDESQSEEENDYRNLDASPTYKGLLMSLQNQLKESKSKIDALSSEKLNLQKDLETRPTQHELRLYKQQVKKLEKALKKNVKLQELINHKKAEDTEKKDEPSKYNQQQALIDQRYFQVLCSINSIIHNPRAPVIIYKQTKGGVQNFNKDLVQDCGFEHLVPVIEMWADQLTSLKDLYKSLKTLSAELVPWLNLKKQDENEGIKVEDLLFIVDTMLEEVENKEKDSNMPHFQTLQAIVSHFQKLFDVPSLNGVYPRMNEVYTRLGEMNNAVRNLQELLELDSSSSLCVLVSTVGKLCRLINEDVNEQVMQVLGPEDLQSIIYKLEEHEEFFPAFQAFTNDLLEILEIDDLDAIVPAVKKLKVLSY

Variant | effect of a mutation on the interaction
S153P | with no effect

Variants of: B1
Details: with dzip3_human DZIP3, Q86Y13
Sequence of dzip3_human DZIP3, Q86Y13 (Q86Y13 whole entry): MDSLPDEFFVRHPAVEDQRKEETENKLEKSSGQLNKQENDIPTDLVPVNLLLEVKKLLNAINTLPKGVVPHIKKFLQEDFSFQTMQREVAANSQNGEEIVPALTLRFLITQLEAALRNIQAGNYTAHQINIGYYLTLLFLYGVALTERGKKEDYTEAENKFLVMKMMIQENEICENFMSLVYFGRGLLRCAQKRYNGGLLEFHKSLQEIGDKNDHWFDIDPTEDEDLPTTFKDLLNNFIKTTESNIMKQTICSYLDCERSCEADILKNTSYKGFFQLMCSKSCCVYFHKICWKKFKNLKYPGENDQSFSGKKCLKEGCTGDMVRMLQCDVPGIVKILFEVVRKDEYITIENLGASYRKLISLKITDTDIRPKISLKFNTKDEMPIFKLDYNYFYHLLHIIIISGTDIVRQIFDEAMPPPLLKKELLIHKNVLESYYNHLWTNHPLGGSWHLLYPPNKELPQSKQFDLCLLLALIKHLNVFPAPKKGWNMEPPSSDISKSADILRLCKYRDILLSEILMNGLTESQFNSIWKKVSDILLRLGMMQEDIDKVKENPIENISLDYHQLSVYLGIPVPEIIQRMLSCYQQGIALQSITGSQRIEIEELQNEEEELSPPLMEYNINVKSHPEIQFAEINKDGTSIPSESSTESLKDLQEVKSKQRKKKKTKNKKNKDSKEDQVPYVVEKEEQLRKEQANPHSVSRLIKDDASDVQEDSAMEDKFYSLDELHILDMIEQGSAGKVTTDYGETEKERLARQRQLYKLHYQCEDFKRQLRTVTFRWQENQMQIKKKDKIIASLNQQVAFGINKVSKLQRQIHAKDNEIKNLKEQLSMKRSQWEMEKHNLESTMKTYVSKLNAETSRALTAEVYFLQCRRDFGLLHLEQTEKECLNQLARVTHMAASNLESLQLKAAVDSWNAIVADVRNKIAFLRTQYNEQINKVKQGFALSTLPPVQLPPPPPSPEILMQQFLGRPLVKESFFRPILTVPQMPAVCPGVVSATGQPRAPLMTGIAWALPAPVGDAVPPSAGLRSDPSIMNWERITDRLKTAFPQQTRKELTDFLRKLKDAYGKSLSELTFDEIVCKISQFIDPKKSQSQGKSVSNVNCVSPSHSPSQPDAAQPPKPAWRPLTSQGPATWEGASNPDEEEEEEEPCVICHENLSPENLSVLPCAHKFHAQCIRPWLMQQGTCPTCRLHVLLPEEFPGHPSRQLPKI

Variant | effect of a mutation on the interaction
S153P | with no effect

Variants of: B2
Details: with psmf1_human PSMF1, Q92530

Variant | effect of a mutation on the interaction
R335P | with no effect

Variants of: B3
Details: with pe2r3_human PTGER3, P43115

Variant | effect of a mutation on the interaction
A115T | with no effect
R74Q | with no effect

Variants of: B4
Details: with klh42_human KLHL42, Q9P2K6

Variant | effect of a mutation on the interaction
MNKNTSTVVSPSLLEKDPAFQMITIAKETGLGLKVLGGINRNEGPLVYIQEIIPGGDCYKDGRLKPGDQLVSVNKESMIGVSFEEAKSIITGAKLRLESAWEIAFIRQKSDNIQPENLSRTSLIEASGEYGPQASTLSLFSSPPEILIPKTSSTPKTNNDILSSCEIKTGYNKTVQIPITSENSTVGLSNTDVASAWTENYGLQEKISLNPSVRFKAEKLEMALNYLGIQPTKEQHQALRQQVQADSKGTVSFGDFVQVARNLFCLQLDEVNVGAHEISNILDSQLLPCDSSEADEMERLKCERDDALKEVNTLKEKLLESDKQRKQLTEELQNVKQEAKAVVEETRALRSRIHLAEAAQRQAHGMEMDYEEVIRLLEAKITELKAQLADYSDQNKESVQDLKKRIMVLDCQLRKSEMARKTFEASTEKLLHFVEAIQEVFSDNSTPLSNLSERRAVLASQTSLTPLGRNGRSIPATLALESKELVKSVRALLDMDCLPYGWEEAYTADGIKYFINHVTQTTSWIHPVMSVLNLSRSEENEEDCSRELPNQKS [C120R] | with no effect
